T1: Recombinant FGFR4 (G&P Biosciences) (human, UniProt P22455 22-369)
T1 construct: Bought protein; the SPR method says only 'Recombinant; also called rFGFR4; extracellular FGFR4
T1 sequence: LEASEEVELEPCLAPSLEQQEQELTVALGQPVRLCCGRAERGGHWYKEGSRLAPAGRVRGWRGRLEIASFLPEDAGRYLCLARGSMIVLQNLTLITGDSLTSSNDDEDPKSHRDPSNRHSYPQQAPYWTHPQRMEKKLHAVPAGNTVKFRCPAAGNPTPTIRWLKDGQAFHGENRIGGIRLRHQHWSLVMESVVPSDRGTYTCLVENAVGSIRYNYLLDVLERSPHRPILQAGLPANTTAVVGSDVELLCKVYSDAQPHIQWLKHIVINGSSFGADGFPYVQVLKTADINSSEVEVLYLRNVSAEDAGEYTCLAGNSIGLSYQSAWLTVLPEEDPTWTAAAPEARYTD

B1: B1 nanobody (anti-FGFR4 sdAb, NaLi-H1 library) (VHH)
VHH: EVQLQASGGGFVQPGGSLRLSCAASGYTSRSSAMGWFRQAPGKEREFVSAISDLTGYPYYYADSVKGRFTISRDNSKNTVYLQMNSLRAEDTATYYCAAYQDDKWTYGSQHGKYWGQGTQVTVSS
notes: also called B1 sdAb; not shown: C-terminal Myc/6xHis-tag and an additional cysteine
B2: F8 nanobody (anti-FGFR4 sdAb, Gimli library) (VHH)
VHH: EVQLVESGGGLVQPGGSLRLSCAASGTGYALDDMGWVRQAPGKGLEWVSAISDDESMADYYADSVKGRFTISRDNSKNTVYLQMNSLRAEDTAVYYCASYKEYKYQSGHHYFAYRGQGTLVTVSS
notes: Recombinant nanobody of about 17 kDa; also called F8 sdAb; not shown: C-terminal Myc/6xHis-tag and an additional cysteine
B3: B5 nanobody (anti-FGFR4 sdAb, NaLi-H1 library) (VHH)
VHH: EVQLQASGGGFVQPGGSLRLSCAASGRTSWLTTMGWFRQAPGKEREFVSAISSFSSKQGYYADSVKGRFTISRDNSKNTVYLQMNSLRAEDTATYYCAYASYPRHQGNGRWKDFVEYWGQGTQVTVSS
notes: Recombinant nanobody of about 17 kDa; also called B5 sdAb; not shown: C-terminal Myc/6xHis-tag and an additional cysteine
B4: A8 nanobody (anti-FGFR4 sdAb, NaLi-H1 library) (VHH)
VHH: EVQLQASGGGFVQPGGSLRLSCAASGRTYSRDTMGWFRQAPGKEREFVSAISSRHSHTTYYADSVKGRFTISRDNSKNTVYLQMNSLRAEDTATYYCAEWDVFDMHYALPPMWYWGQGTQVTVSS
notes: also called A8 sdAb; not shown: C-terminal Myc/6xHis-tag and an additional cysteine

What follows are binders tested against T1, Recombinant FGFR4 (G&P Biosciences) (assay: SPR (BIAcore T200), single cycle kinetics, FGFR4 amine-immobilised, nanobody as analyte, heterogeneous ligand model, component 1 (koff1)).
Experimental: (§1) FIG. 3: Affinity determination of nanobodies to recombinant protein via surface plasmon resonance spectroscopy. Single cycle kinetics analysis was performed on immobilized FGFR4 through covalent amine binding on the dextran based sensor chip. The analytes A8, B1, B5, F8 and mCh were injected in 5 different concentrations followed by a dissociation phase. A final dissociation step was added after the last injection step to determine Koff rates for the KD calculations. The black curves represent the measured data and red curves show the fit analysis (heterogeneous ligand model) performed with the BIAevaluation software.
(§2) Single cycle kinetics analysis was performed with the BIAcore® T200 instrument (GE Healthcare) on CMD200M sensor chips (XanTec bioanalytics GmbH) activated with a mixture of 300 mM NHS (N-hydroxysuccinimide) and 50 mM EDC (N-ethyl-N′-(dimethylaminopropyl) carbodiimide). Recombinant FGFR1, FGFR2, FGFR3 and FGFR4 (G&P Biosciences) were immobilized on the activated biosensors (800 to 12′000 RU; 1 RU=1 pg/mm²) followed by a blocking step with 1M ethanolamine. One flow channel per chip was used as a reference to provide background corrections. The nanobodies were injected at 5 different concentrations followed by a dissociation phase. Koff-rates were determined from a final dissociation step after the last injection. The measurements with FGFR4 were performed for each nanobody on freshly immobilized protein due to strong binding and incomplete dissociation from the surface. Immobilization flow rate was 5 μl/min and binding studies were performed at 30 μl/min. Binding parameters were determined with the heterogeneous ligand model fit of the BIAevaluation software. The black curves represent the measured data and red curves show the performed fit analysis.
To determine the binding affinity of the nanobodies to FGFR4, we performed surface plasmon resonance (SPR) spectroscopy with recombinant FGFR4. As already mentioned above, FGFR1 and FGFR2 are expressed on Rh4-FR4ko cells and flow cytometry analysis indicated no binding of the nanobodies to the cells. […]

Binder | koff [s⁻¹]
B1 | 1.18e-06
B2 | 1.04e-06
B3 | 0.000566

Each binder was assayed against T2, FGFR1 expressed on Rh4-FR4ko cells (UniProt P11362 22-822, limits assumed) (assay: flow cytometry on Rh4-FR4ko cells, which express FGFR1 and FGFR2).
T2 construct: whole, on cells; also called FGFR1 on Rh4 cells
Experimental: The cells were incubated for 1 h with nanobodies at 10 μM (A8, B1, B5, F8, mCh) followed by stimulation of FGFR4 with 50 nM FGF19 for 10 min. Control cells (C) were either not stimulated or stimulated with FGF19 in absence of the nanobodies. The cell lysates were analysed by western blot with anti phospho ERK1/2 antibody. Total Erk1/2 levels are shown as loading control.
Binding validation of selected phages, recombinant nanobodies and decorated liposomes was performed on Rh4-FR4 wt and Rh4-FR4ko cells. Specificity of selected phage clones binding to FGFR4 was determined by flow cytometry in 96-well plates (Becton Dickinson). Cell surface staining of Rh4-FR4 wt or Rh4-FR4ko cells was performed on ice in PBS supplemented with 1% FBS. 80 μL phages+20 μL PBS/1% milk were incubated on 1×10⁵ cells for 1 h on ice. […] Samples were analyzed after two washes by flow cytometry on a MACSQuant® cytometer (Miltenyi) and results were analyzed with FlowJo™ software (BD Biosciences, France). Phages displaying anti-mCherry nanobodies were used as negative control²⁴ and as positive control we used an anti-FGFR4 antibody (BT53, kindly provided by J. Khan lab, NCI, Bethesda, MD). For binding test of recombinant nanobodies, cells were detached with Accutase® (Stemcell Technologies) and washed with PBS. All following steps were performed on ice: 4×10⁵ cells were incubated with nanobody concentrations of 30 μg/ml for 1 h, washed once with PBS and incubated for an additional 30 min with anti His-tag FITC labeled antibody (LS-C57341, LSBioscience, diluted 1:10). The cells were washed once more with PBS and analyzed. Targeting liposomes were added at 0.5 mM final lipid concentration to cells in 96-well plates and incubated for 2 h at 37° C. and 5% CO₂. The cells were washed twice with PBS and detached with Accutase®.
Validation of the binding of recombinant nanobodies to cell-surface expressed FGFR4 was performed with Rh4-FR4 wt and Rh4-FR4ko cells by flow cytometry.

Binder | binding result
B1 | no binding (tested: 30 µg/ml)
B4 | no binding (tested: 30 µg/ml)
B2 | no binding (tested: 30 µg/ml)
B3 | no binding (tested: 30 µg/ml)

What follows are binders tested against T1, Recombinant FGFR4 (G&P Biosciences) (assay: SPR (BIAcore T200), single cycle kinetics, FGFR4 amine-immobilised, nanobody as analyte, heterogeneous ligand model, component 1 (KD1)).
Experimental: as §1, §2
To determine the binding affinity of the nanobodies to FGFR4, we performed surface plasmon resonance (SPR) spectroscopy with recombinant FGFR4. As already mentioned above, FGFR1 and FGFR2 are expressed on Rh4-FR4ko cells and flow cytometry analysis indicated no binding of the nanobodies to the cells. To further confirm FGFR4-specificity, we included also affinity measurements with recombinant FGFR1, FGFR2 and FGFR3. Nanobodies A8, B1, B5, F8, and mCh were injected in five different concentrations on a FGFR coated chip.

Binder | Kd [pM]
B1 | 1.06
B4 | 0.00422
B2 | 19.1
B3 | 308
